Data set [1] has as its system T1, SolCorinPD-EK (soluble modified human corin protease domain, zymogen).
T1 sequence: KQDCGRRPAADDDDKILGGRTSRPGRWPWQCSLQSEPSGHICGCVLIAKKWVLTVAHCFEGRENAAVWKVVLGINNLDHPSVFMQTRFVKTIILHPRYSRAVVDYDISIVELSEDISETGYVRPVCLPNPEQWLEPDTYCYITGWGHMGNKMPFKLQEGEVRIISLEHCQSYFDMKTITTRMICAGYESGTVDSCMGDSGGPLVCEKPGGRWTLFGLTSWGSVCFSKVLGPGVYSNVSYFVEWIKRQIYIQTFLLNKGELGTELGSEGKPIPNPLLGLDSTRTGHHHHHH

Data set [2] deals with T2, SolCorin-EK (soluble modified human corin, zymogen).
T2 sequence: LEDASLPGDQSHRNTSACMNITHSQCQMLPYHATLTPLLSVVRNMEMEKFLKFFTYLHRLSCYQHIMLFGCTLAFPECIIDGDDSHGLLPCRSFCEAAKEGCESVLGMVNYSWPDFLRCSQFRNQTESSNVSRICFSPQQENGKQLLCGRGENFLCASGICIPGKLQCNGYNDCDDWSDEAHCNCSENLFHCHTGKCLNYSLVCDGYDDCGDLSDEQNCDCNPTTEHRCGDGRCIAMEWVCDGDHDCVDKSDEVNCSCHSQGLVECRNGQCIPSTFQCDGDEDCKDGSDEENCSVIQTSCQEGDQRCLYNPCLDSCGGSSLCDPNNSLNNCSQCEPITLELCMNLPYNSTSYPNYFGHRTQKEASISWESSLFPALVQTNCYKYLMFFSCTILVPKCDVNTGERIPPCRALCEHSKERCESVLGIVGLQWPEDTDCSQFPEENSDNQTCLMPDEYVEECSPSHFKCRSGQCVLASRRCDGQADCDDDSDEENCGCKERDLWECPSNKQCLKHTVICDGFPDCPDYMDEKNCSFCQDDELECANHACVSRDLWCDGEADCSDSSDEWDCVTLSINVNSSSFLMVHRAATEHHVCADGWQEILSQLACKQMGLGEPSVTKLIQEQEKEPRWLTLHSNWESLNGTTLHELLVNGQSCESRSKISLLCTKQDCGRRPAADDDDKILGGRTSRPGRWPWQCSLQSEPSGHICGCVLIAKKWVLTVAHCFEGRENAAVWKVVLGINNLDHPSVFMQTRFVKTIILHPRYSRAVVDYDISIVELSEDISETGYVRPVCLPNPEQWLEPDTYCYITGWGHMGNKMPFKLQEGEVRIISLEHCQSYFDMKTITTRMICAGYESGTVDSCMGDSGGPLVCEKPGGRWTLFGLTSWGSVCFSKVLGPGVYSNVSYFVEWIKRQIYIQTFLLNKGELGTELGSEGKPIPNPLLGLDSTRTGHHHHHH

Data set [3] concerns the target T3, recombinant human wild-type pro-ANP with C-terminal V5 and 6xHis tags, P01160.
T3 chain: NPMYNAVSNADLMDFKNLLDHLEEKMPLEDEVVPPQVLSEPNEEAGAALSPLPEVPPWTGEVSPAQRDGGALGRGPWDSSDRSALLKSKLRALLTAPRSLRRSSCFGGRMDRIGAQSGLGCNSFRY

The text below walks through data of patent publication US20050003416.

Regarding purified enterokinase (Calbiochem), the “cleavage of soluble corin by 0, 2, 10, 20 or 40 units enterokinase, 25 C, 4 hrs (anti-V5 Western blot)” value was “both the long form (SolCorin-EK) and short form (SolCorinPD-EK) of soluble modified human corin were cleaved by exposure to enterokinase in a dose-dependent manner” in data set [1]; “both the long form (SolCorin-EK) and short form (SolCorinPD-EK) of soluble modified human corin were cleaved by exposure to enterokinase in a dose-dependent manner” in data set [2].

B1: enterokinase-activated SolCorin-EK (protein)
chain 1: LEDASLPGDQSHRNTSACMNITHSQCQMLPYHATLTPLLSVVRNMEMEKFLKFFTYLHRLSCYQHIMLFGCTLAFPECIIDGDDSHGLLPCRSFCEAAKEGCESVLGMVNYSWPDFLRCSQFRNQTESSNVSRICFSPQQENGKQLLCGRGENFLCASGICIPGKLQCNGYNDCDDWSDEAHCNCSENLFHCHTGKCLNYSLVCDGYDDCGDLSDEQNCDCNPTTEHRCGDGRCIAMEWVCDGDHDCVDKSDEVNCSCHSQGLVECRNGQCIPSTFQCDGDEDCKDGSDEENCSVIQTSCQEGDQRCLYNPCLDSCGGSSLCDPNNSLNNCSQCEPITLELCMNLPYNSTSYPNYFGHRTQKEASISWESSLFPALVQTNCYKYLMFFSCTILVPKCDVNTGERIPPCRALCEHSKERCESVLGIVGLQWPEDTDCSQFPEENSDNQTCLMPDEYVEECSPSHFKCRSGQCVLASRRCDGQADCDDDSDEENCGCKERDLWECPSNKQCLKHTVICDGFPDCPDYMDEKNCSFCQDDELECANHACVSRDLWCDGEADCSDSSDEWDCVTLSINVNSSSFLMVHRAATEHHVCADGWQEILSQLACKQMGLGEPSVTKLIQEQEKEPRWLTLHSNWESLNGTTLHELLVNGQSCESRSKISLLCTKQDCGRRPAADDDDK
chain 2: ILGGRTSRPGRWPWQCSLQSEPSGHICGCVLIAKKWVLTVAHCFEGRENAAVWKVVLGINNLDHPSVFMQTRFVKTIILHPRYSRAVVDYDISIVELSEDISETGYVRPVCLPNPEQWLEPDTYCYITGWGHMGNKMPFKLQEGEVRIISLEHCQSYFDMKTITTRMICAGYESGTVDSCMGDSGGPLVCEKPGGRWTLFGLTSWGSVCFSKVLGPGVYSNVSYFVEWIKRQIYIQTFLLNKGELGTELGSEGKPIPNPLLGLDSTRTGHHHHHH
Consider B1, for which the “processing of pro-ANP to ANP in mixed conditioned media, 4 C, 3 hours (anti-V5 immunoprecipitation and Western blot)” value in data set [3] is “pro-ANP was processed to ANP by the long form (SolCorin-EK), but not the short form (SolCorin-PD-EK), of soluble modified human corin upon activation by enterokinase in vitro”.

B2: enterokinase-activated SolCorinPD-EK (protein)
chain 1: KQDCGRRPAADDDDK
chain 2: B1 chain 2
For B2, the “processing of pro-ANP to ANP in mixed conditioned media, 4 C, 3 hours (anti-V5 immunoprecipitation and Western blot)” value in data set [3] was “pro-ANP was processed to ANP by the long form (SolCorin-EK), but not the short form (SolCorin-PD-EK), of soluble modified human corin upon activation by enterokinase in vitro”.
